From US20240043528A1, “NANOBODY-OGA FUSIONS AND USES THEREOF” (President and Fellows of Harvard College, priority 2020, published 2024)
“Also recorded” adds a separate entry of the source.

Tests used:
GFP-Nup62 = assay: Deglycosylation of GFP-Nup62 co-expressed with OGA constructs (anti-EPEA enrichment, RL2 immunoblot); assay type: cell-based, human; conditions: for deglycosidase activity on GFP-Nup62 of N fragment: N fragment paired with C1 (aa 414-916)
Description: HEK 293T cells were cultured in Dulbecco's Modified Eagle Medium (DMEM, Cat #11995073) supplemented with penicillin (50 μg/mL) and streptomycin (50 μg/mL) along with 10% (v/v) FBS. Transfections of all plasmids in this study were performed using TransIT-PRO® (Mirus Bio, Cat #MIR 5740) according to the manufacturer's instructions.
Glycoproteins Nup62, Sp1, JunB, c-Jun were subcloned into pcDNA3.1 vector with a GFP and a Flag-tag or a BC2 tag in the N-terminus and an EPEA tag in the C terminus respectively, unless otherwise noted. For all split OGA constructs with or without the fusion of nanobody GFP, N fragments were tagged with myc tag and C fragments were tagged with HA tag respectively. Human SP1 cDNA ORF plasmid (Cat #HG12024-G), human c-Fos cDNA ORF plasmid, and human OGT cDNA ORF cloned with a C-terminal His tag (Cat #HG11279-M) were purchased from Sino Biological. For subcloning, PCR fragments were amplified using Q5 High-Fidelity 2× Master Mix (New England BioLabs, Cat #M0492S). The vectors were double-digested and ligated to gel-purified PCR products by T4 ligation using T4 DNA ligase (New England BioLabs, Cat #M0202S) or by Gibson assembly using Gibson Assembly Master mix (New England BioLabs, Cat #E2611L). c-Fos was subcloned into a pcDNA3.1 vector with a 14-residue Ubc tag (amino acids: QADQEAKELARQIA (SEQ ID NO: 11)), Flag tag, and EPEA tag at the C terminus. All nanobody DNA fragments were synthesized by IDT.
After 36-48 h of transfection, cells were harvested and washed with PBS once. Cells were lysed with M-PER lysis buffer containing 1× protease inhibitor cocktail and 10 μM Thiamet-G unless otherwise noted. Protein concentrations were determined by the BCA assay kit (G-Biosciences, 786) on a multi-mode microplate reader FilterMax F3 (Molecular Devices LLC, Sunnyvale, CA).
For immunoprecipitation of proteins with the C-terminal EPEA tag, cell lysates with equal amounts of protein were diluted with PBS and incubated with C-tag affinity matrix (Thermo Scientific) for 1 h at room temperature, with end-to-end rotation, following the manufacturer's instructions. After washing three times with PBS buffer, the enriched proteins were eluted with SDS sample buffer and subjected to SDS-PAGE.
For immunoblotting analysis, proteins were transferred to a nitrocellulose membrane using iBlot (Thermo Scientific). Membranes were blocked with Tris buffered saline containing 0.1% Tween-20 and 5% BSA and incubated with the primary antibodies (1:1000 dilution) and the secondary antibodies (1:10,000 dilution) sequentially. Immunoblot images were captured by Azure Imager C600. Analysis of immunoblots was conducted with Fiji ImageJ. All IR fluorescence western blot images are converted into grayscale images by Fiji ImageJ. The unsaturated exposure of immunoblot images was used for quantification with the appropriate loading controls as standards. Statistical analysis of the data was performed with Prism 8, using data from at least three independent experiments.

myc-OGA(1-400) = molecular target: T1, myc-OGA(1-400) (human, UniProt O60502 1-400); assay: co-immunoprecipitation (anti-c-Myc / anti-HA magnetic beads) from HEK 293T lysates, immunoblot
T1 construct: also called N2; N fragment
T1 sequence: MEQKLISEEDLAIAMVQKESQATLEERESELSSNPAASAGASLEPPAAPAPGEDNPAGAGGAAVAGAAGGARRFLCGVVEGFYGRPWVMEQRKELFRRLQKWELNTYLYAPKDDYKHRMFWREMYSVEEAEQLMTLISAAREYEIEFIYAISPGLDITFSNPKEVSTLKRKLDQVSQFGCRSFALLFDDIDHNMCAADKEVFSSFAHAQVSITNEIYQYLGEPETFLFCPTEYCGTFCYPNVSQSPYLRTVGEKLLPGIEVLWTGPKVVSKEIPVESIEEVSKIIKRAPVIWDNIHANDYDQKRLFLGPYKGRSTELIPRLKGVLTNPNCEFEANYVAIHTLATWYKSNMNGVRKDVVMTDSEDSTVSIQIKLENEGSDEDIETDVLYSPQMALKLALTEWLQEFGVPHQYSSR
Description: The asterisk indicates IgG heavy chain from anti-c-Myc magnetic beads. […] In FIG. 9A and FIG. 9C, activities of fragments alone or pairs with/without nGFP were evaluated on GFP-Nup62, which was enriched by beads against EPEA tag and blotted with RL2 antibody to reveal O-GlcNAc modification level. D174N is a catalytically impaired mutation on OGA. Anti-myc and anti-HA blots detect expression of full-length (fl-OGA) or N-terminal fragment, and C-terminal fragment, respectively. WCL, whole cell lysates. The data in FIGS. 9A-9C are representative of at least two biological replicates.
For immunoprecipitation of proteins with anti-HA (Pierce, 88836) or anti-c-Myc (Pierce, 88842) magnetic beads, cell lysates with equal amounts of protein were diluted with 1×TBS-T buffer (25 mM Tris HCl pH 7.4, 150 mM NaCl, 0.05% Tween-20) and incubated with pre-washed magnetic beads at room temperature for 30 min with mixing, following the manufacturer's instructions. Anti-HA magnetic beads were washed three times with TBS-T buffer and once with ultrapure water. Anti-c-Myc magnetic beads were washed three times with 5×TBS-T buffer and once with ultrapure water. The enriched proteins were eluted with SDS sample buffer and subjected to SDS-PAGE.

HA-OGA(414-916), O60502 = molecular target: T2, HA-OGA(414-916), O60502
T2 chain: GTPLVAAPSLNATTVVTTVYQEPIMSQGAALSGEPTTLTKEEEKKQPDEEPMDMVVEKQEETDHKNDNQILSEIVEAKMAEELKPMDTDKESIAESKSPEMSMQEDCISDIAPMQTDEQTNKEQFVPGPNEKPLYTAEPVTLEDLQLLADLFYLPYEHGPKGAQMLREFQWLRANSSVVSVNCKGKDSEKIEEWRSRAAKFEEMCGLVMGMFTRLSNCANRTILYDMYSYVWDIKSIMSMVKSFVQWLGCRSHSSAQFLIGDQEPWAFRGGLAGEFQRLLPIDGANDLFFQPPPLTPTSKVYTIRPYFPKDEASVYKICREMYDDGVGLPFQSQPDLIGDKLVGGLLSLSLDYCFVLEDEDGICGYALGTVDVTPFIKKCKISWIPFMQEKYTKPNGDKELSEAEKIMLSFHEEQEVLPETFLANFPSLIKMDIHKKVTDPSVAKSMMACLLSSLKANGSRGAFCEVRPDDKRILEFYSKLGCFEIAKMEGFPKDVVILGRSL

B1: N2: myc-OGA(1-400) N fragment (SEQ ID NO: 4) (protein)
chain: T1 sequence
modifications: myc tag
Question: With B1 as the molecule, how does the “deglycosidase activity on GFP-Nup62 of N fragment” value (GFP-Nup62; HEK 293T cells) read?
Answer: The value was “possessed deglycosylation capability when paired with C1”.

B2: HA-OGA(554-706) (enzyme, human, UniProt O60502 554-706, looked up)
chain: TLEDLQLLADLFYLPYEHGPKGAQMLREFQWLRANSSVVSVNCKGKDSEKIEEWRSRAAKFEEMCGLVMGMFTRLSNCANRTILYDMYSYVWDIKSIMSMVKSFVQWLGCRSHSSAQFLIGDQEPWAFRGGLAGEFQRLLPIDGANDLFFQPP
notes: range 554-706; the legend prints C4; also called C4; not shown: N-terminal HA tag
Question: Does B2 bind (myc-OGA(1-400))?
Answer: Result: no binding

B3: OGA(cat): catalytic domain of OGA alone, residues 1-366, myc tag (protein, UniProt O60502 1-366, looked up, fragment)
chain: MVQKESQATLEERESELSSNPAASAGASLEPPAAPAPGEDNPAGAGGAAVAGAAGGARRFLCGVVEGFYGRPWVMEQRKELFRRLQKWELNTYLYAPKDDYKHRMFWREMYSVEEAEQLMTLISAAREYEIEFIYAISPGLDITFSNPKEVSTLKRKLDQVSQFGCRSFALLFDDIDHNMCAADKEVFSSFAHAQVSITNEIYQYLGEPETFLFCPTEYCGTFCYPNVSQSPYLRTVGEKLLPGIEVLWTGPKVVSKEIPVESIEEVSKIIKRAPVIWDNIHANDYDQKRLFLGPYKGRSTELIPRLKGVLTNPNCEFEANYVAIHTLATWYKSNMNGVRKDVVMTDSEDSTVSIQIKLENEGSDE
modifications: catalytic domain myc tag
notes: catalytic domain of OGA alone, residues 1-366, myc tag
Question: For B3, which “deglycosidase activity on GFP-Nup62 of N fragment” value (GFP-Nup62; HEK 293T cells) is on record?
Answer: Its value is “no activity was seen on GFP-Nup62”.

Question: And the “deglycosidase activity / O-GlcNAc modification level on GFP-Nup62” value (GFP-Nup62; co-expressed in HEK 293T cells)?
Answer: Its value is “inactive”.

Question: What about the “deglycosidase activity on GFP-Nup62 after fusion of nGFP” value (GFP-Nup62; nGFP fused to a fragment, HEK 293T cells, listed as N3) of the same molecule?
Answer: The value was “could not be recovered; also recorded: unable to reconstitute OGA's activity with any C-fragments shown in this study even in the presence of nGFP”.

B4: myc-OGA(1-413) (protein)
chain: MVQKESQATLEERESELSSNPAASAGASLEPPAAPAPGEDNPAGAGGAAVAGAAGGARRFLCGVVEGFYGRPWVMEQRKELFRRLQKWELNTYLYAPKDDYKHRMFWREMYSVEEAEQLMTLISAAREYEIEFIYAISPGLDITFSNPKEVSTLKRKLDQVSQFGCRSFALLFDDIDHNMCAADKEVFSSFAHAQVSITNEIYQYLGEPETFLFCPTEYCGTFCYPNVSQSPYLRTVGEKLLPGIEVLWTGPKVVSKEIPVESIEEVSKIIKRAPVIWDNIHANDYDQKRLFLGPYKGRSTELIPRLKGVLTNPNCEFEANYVAIHTLATWYKSNMNGVRKDVVMTDSEDSTVSIQIKLENEGSDEDIETDVLYSPQMALKLALTEWLQEFGVPHQYSSRQVAHSGAKASVVD
Question: With B4 as the molecule, how does the “deglycosidase activity on GFP-Nup62 (O-GlcNAc RL2 immunoblot)” value (HA-OGA(414-916), O60502) read?
Answer: Its value is “The N- and C-terminal fragments can associate to reconstitute OGA enzymatic activity when co-expressed simultaneously in living cells”.
